The source of these data is paper PMC7492416 (Nature plants, 2020).

T1: SUMM2-GFP (Arabidopsis thaliana (Col-0 cDNA), UniProt P60838 1-894)
T1 sequence (looked up): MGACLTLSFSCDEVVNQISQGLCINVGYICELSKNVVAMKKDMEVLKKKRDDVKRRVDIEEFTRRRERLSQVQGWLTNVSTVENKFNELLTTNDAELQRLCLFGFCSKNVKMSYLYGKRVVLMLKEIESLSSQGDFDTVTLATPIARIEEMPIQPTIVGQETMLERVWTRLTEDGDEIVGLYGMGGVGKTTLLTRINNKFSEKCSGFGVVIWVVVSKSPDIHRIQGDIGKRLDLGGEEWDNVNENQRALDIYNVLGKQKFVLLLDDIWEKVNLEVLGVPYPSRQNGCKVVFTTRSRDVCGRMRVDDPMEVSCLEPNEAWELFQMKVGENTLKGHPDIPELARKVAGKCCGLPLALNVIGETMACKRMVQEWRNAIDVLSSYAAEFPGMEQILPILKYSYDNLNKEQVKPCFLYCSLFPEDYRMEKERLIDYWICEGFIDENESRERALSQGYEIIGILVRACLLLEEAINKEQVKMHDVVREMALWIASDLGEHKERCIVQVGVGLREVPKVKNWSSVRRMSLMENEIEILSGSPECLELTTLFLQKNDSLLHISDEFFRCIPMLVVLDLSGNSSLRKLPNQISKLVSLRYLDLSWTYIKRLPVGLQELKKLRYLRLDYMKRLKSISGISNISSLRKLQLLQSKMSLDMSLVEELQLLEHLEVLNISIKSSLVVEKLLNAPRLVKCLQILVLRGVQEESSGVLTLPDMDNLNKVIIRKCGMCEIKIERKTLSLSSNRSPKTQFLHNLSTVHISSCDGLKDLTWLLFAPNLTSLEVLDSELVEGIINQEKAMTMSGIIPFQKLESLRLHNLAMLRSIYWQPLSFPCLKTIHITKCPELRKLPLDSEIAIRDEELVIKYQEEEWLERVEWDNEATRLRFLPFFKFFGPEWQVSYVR

T2: BIR2-mCherry (UniProt Q9LSI9 29-605)
T2 sequence (looked up): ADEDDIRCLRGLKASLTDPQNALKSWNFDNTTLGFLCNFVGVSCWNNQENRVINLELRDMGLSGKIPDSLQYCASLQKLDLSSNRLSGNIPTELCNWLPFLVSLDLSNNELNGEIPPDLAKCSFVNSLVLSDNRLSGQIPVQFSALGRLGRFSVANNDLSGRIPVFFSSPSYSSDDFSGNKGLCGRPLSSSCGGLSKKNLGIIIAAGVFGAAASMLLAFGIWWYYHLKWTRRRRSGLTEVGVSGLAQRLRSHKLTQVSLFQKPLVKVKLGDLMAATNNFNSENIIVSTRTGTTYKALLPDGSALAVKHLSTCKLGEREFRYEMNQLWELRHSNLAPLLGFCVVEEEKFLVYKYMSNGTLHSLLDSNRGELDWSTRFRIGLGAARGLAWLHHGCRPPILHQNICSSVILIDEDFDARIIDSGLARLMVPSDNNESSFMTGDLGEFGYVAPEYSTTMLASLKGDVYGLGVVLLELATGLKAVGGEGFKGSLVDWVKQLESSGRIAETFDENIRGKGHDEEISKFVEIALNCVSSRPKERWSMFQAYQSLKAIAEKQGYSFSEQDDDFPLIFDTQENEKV

B1: MEKK2-mCherry (natural protein, Arabidopsis thaliana (Col-0 cDNA), UniProt O81472 1-773, looked up)
chain: MKKSSDKSPVRQHDTATQINSDAVSSSTSFTDSDSTCSFLTPSMEFPDRISFRRIDFSEAAPTGVVLPSTSSELTRSNSSENKIPNEDISVSTSSRYLVFDKILALMKKSPGRRGDKTSPARRLDRSDAVRRNIDYDAGEDSSSLLITRSLDFPNRTSFRVDGVDDGEIDRIYQYIGVSGPEDFAISSDAWKARMEHERSSSDVVNKLKSLDLDSREAGPSGGVVASSSMNHKFQGHDLSEAGSIGVVVASNFTLSESNKIENLNSLRDKEIVDGDMVENRCGIERKPTILVKSRGYLVHNDDVGVGGGIKGVRPPVLNVPRADKEVVDGGTVESKSGIEWKPTILVKSKGYLVSNDGGIKGVTSPVLNLRPTDKEVVDSGTVENRRGIKGVRPSVLKPPPVMKLPPVDLPGSSWDILTHFAPDSEIVRRPSSSSSSENGCDEEEAEDDKVEKEETGDMFIQLEDTTDEACSFTTNEGDSSSTVSNTSPICVSGGSINTSWQKGQLLRQGSFGSVYEAISEDGDFFAVKEVSLLDQGSQAQECIQQLEGEIALLSQLEHQNILRYRGTDKDGSNLYIFLELVTQGSLLELYRRYQIRDSLISLYTKQILDGLKYLHHKGFIHRDIKCATILVDANGTVKLADFGLAKVSKLNDIKSRKETLFWMAPEVINRKDNDGYRSPADIWSLGCTVLEMCTGQIPYSDLEPVEALFRIRRGTLPEVPDTLSLDARHFILKCLKLNPEERPTATELLNHPFVRRPLPSSGSGSTSPLIRR
B2: LET1-GFP (receptor, Arabidopsis thaliana (Col-0 cDNA), UniProt O22187 29-834, looked up)
chain: DTSTYTRPENFYVNCGSDSNVFYGGQTFVGDTNSSTNSVSFTNKGTEVINDQSSVAPEIYRTVRIFRHPSSYKFKLDSLGLHFVRLHFSVVFSRADLLTARFTVSATSGSNHHLKSFSPQNLTNTPRVEEFLLMMNSLEFEIRFVPDHSSLALINAIEVFSAPDDLEIPSASDKNLHTIYRLNVGGEKITPDNDTLGRTWLPDDDDFLYRKDSARNINSTQTPNYVGGLSSATDSTAPDFVYKTAKAMNRSSNEQVGMLMNVTWSFKVKSNHRHFIRIHFSDILSNLSNSDSDFYLFVNGYWRVDVKPSEQPRLASPFFKDVVNVSDGSGLLNISIGTKEANKDAGFLNGLEMMEVLSKSGSDYSNRSSSRVHIITGCAVAAAAASALVFSLLFMVFLKRRRSKKTKPEVEGTVWSPLPLHRGGSSDNRPISQYHNSPLRNLHLGLTIPFTDILSATNNFDEQLLIGKGGFGYVYKAILPDGTKAAIKRGKTGSGQGILEFQTEIQVLSRIRHRHLVSLTGYCEENSEMILVYEFMEKGTLKEHLYGSNLPSLTWKQRLEICIGAARGLDYLHSSGSEGAIIHRDVKSTNILLDEHNIAKVADFGLSKIHNQDESNISINIKGTFGYLDPEYLQTHKLTEKSDVYAFGVVLLEVLFARPAIDPYLPHEEVNLSEWVMFCKSKGTIDEILDPSLIGQIETNSLKKFMEIAEKCLKEYGDERPSMRDVIWDLEYVLQLQMMTNRREAHEEDSTAINSGGSLVAPRLMVSDSFSTNSIFQNGDESKNRFGFTDSSETRVFSQLKISDAR
B3: BAK1-GFP (receptor, Arabidopsis, UniProt Q94F62 26-615, looked up)
chain: NAEGDALSALKNSLADPNKVLQSWDATLVTPCTWFHVTCNSDNSVTRVDLGNANLSGQLVMQLGQLPNLQYLELYSNNITGTIPEQLGNLTELVSLDLYLNNLSGPIPSTLGRLKKLRFLRLNNNSLSGEIPRSLTAVLTLQVLDLSNNPLTGDIPVNGSFSLFTPISFANTKLTPLPASPPPPISPTPPSPAGSNRITGAIAGGVAAGAALLFAVPAIALAWWRRKKPQDHFFDVPAEEDPEVHLGQLKRFSLRELQVASDNFSNKNILGRGGFGKVYKGRLADGTLVAVKRLKEERTQGGELQFQTEVEMISMAVHRNLLRLRGFCMTPTERLLVYPYMANGSVASCLRERPESQPPLDWPKRQRIALGSARGLAYLHDHCDPKIIHRDVKAANILLDEEFEAVVGDFGLAKLMDYKDTHVTTAVRGTIGHIAPEYLSTGKSSEKTDVFGYGVMLLELITGQRAFDLARLANDDDVMLLDWVKGLLKEKKLEALVDVDLQGNYKDEEVEQLIQVALLCTQSSPMERPKMSEVVRMLEGDGLAERWEEWQKEEMFRQDFNYPTHHPAVSGWIIGDSTSQIENEYPSGPR

Holding throughout (assay): FRET or BRET
In assay [1] the target is T1, SUMM2-GFP.
Assay [2] addresses B1.
In assay [3] the target is T2, BIR2-mCherry.

B1 came in with an FRET efficiency in assay [1] of 7.99 ± 0.19%.

For B2, in assay [2], the FRET efficiency was found to be 13.1 ± 1.76%.

B3 displayed an FRET efficiency in assay [3] of 13.5%.
